In patent publication US20120107324A1 (published 2012):
Where a chain is given by its changes, count along the chain named.

B1: 1F2.2B7 (antibody, IgG4, V domains shown)
VH: QVQLVESGGGVVQPGRSLRLSCAASGFTFRSYGMHWVRQAPGKGLEWVAVIWYDGSNKYYADSVKGRFTISRDNSKNTLYLQMNSLRAEDTAMYYCARDGAARRGDYYYYHGMDVWGQGTTVTVSS
VL: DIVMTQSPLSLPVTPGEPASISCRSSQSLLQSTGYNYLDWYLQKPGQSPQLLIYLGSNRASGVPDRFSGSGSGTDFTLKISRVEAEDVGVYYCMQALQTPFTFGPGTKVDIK
notes: also called mAb 1F2.2B7
B2: 3F12.4A1 (antibody, IgG2, V domains shown)
VH: B1 VH with R30S, S56T, R87T, M93V, G100M, H111Y, Q118P
VL: DIVMTQSPLSLPVTPGEPASISCRSSQSLLNGIGYNFLDWYLQKPGQSPQLLIYLGSNRASGVPDRFSGSGSGTDFTLTISRVEAEDVGVYYCMHALQTPFTFGPGTKVDIK
notes: Isotype IgG2/k
B3: 4G3.3D11 (antibody, IgG4, V domains shown)
VH: B1 VH with T28I, R30S, S56T, M93V, H111Y
VL: B2 VL with N31H, I33T, N36S, F37S, T79K, Y92F, H95Q
notes: Isotype IgG4/k
B4: 2H12 (antibody, IgG4, V domains shown)
VH: B1 VH with R30S, S56T, N77T, M93V, H111Y
VL: B2 VL with N31R, I33H, N36S, F37Y, T79K, H95Q
notes: Identified as an IgG4/k antibody; also called MAb 2H12; 2H12 IgG4
B5: 2G2.2B5 (antibody, IgG4, V domains shown)
VH: B1 VH with R30S, M93V, H111Y
VL: B2 VL with D1E, S26G, N31Q, G32S, I33T, Y35S, F37Y, D39A, T79K, H95Q
notes: Isotype IgG4/k
B6: 7B1.3A1 (antibody, IgG4, V domains shown)
VH: B1 VH with I51L, Y59N
VL: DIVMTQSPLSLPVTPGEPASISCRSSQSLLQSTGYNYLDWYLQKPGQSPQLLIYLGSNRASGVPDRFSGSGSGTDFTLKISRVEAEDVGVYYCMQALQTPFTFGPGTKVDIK
notes: also called MAb 7B1.3A1
B7: IIA1 (antibody, V domains shown)
VH: QVQLKESGPGLVAPSQSLSITCTISGFSLTDYGVHWVRQPPGKGLEWLVVIWSDGSSTYNSALKSRMTIRKDNSKSQVFLIMNSLQTDDSAMYYCARHGTYYGMTTTGDALDYWGQGTSVTVSS
VL: QIVLTQSPAIMSASLGERVTMTCTASSSVSSNYLHWYQQKPGSAPNLWIYSTSNLASGVPARFSGSGSGTSYSLTISSMEAEDAATYYCHQYLRSPPTFGGGTKLEIK
B8: 2H12 IgG2 WT (antibody, V domains shown)
VH: B1 VH with R30S, S56T, M93V, H111Y
VL: B2 VL with N31R, I33H, N36S, F37Y, T79K, H95Q
B9: 2H12 Variant 1 (IgG2) (antibody, V domains shown)
VH: B1 VH with R30S, S56T, M93V, H111Y
VL: B2 VL with N31R, I33H, N36S, F37Y, T79K, H95Q

The binders below were run against T1, human α5β1 integrin (human, UniProt P08648 42-1049; P05556 21-798) (assay: cell-based or functional assay).
T1 sequence (P08648 42-1049, chain 1 of 2): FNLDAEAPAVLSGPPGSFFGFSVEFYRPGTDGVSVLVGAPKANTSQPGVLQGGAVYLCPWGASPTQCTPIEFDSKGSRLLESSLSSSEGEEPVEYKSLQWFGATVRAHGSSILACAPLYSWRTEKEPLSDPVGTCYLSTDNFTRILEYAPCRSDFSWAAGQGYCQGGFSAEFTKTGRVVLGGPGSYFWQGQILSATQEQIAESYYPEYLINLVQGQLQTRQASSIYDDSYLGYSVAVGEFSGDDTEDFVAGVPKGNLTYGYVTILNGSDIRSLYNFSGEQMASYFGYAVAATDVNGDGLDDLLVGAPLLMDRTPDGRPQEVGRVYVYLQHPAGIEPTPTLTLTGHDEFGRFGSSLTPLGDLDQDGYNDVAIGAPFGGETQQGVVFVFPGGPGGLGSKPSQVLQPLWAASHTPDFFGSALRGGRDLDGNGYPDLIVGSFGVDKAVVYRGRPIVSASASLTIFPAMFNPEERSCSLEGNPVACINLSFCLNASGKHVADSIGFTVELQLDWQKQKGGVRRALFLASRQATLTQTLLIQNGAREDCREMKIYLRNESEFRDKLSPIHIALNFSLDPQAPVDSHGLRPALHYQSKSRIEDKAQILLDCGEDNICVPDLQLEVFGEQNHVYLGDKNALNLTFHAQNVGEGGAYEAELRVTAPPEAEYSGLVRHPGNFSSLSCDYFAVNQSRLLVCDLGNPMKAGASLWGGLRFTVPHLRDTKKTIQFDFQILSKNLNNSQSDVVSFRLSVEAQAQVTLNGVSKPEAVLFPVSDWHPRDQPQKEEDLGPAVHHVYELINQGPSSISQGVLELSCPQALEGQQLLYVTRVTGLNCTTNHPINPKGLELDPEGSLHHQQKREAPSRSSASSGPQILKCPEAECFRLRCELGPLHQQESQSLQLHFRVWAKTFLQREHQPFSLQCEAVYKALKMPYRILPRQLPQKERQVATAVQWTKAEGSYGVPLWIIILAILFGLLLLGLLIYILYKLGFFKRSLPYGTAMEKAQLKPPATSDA
T1 sequence (P05556 21-798, chain 2 of 2): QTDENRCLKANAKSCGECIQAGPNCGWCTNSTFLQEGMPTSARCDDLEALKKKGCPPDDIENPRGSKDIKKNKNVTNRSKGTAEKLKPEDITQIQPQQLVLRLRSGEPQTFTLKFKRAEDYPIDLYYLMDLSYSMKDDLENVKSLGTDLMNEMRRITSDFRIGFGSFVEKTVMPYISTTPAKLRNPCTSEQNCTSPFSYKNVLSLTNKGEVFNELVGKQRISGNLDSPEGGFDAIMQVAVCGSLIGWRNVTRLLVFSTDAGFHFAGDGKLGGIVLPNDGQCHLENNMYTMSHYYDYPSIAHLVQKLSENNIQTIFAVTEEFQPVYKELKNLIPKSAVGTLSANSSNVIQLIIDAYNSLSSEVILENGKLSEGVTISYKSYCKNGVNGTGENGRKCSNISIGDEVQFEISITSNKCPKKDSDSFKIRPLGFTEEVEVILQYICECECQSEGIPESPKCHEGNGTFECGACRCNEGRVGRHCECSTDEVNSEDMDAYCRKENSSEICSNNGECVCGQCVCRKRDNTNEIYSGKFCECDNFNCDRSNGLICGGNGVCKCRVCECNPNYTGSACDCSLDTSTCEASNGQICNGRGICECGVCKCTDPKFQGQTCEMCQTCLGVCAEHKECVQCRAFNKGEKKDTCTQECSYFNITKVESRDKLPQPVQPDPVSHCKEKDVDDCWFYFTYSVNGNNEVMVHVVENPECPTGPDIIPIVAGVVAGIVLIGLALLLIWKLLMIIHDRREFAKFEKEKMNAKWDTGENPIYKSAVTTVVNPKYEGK

| Binder | % Inhibition of cell adhesion, n = 1 (K562 on full length FN, supernatant 1 in 4) [%] | % Inhibition of cell adhesion, n = 2 (K562 on full length FN, supernatant 1 in 4) [%] | % Inhibition of cell adhesion, n = 3 (K562 on GST-FNIII(9-10), no pre-incubation, supernatant 1 in 4) [%] | % Inhibition of cell adhesion, n = 4 (K562 on GST-FNIII(9-10), supernatant 1 in 10) [%] | % Inhibition of cell adhesion, n = 5 (K562 on GST-FNIII(9-10), supernatant 1 in 10) [%] |
| --- | --- | --- | --- | --- | --- |
| B1 | 93 | 102 | 100 | 98 | 77 |
| B2 | 103 | 100 | 97 | 93 | 91 |
| B3 | 96 | 99 | 102 | 100 | 81 |
| B4 | 89 | 100 | 96 | 92 | 89 |
| B5 | 100 | 102 | 97 | 82 | 78 |
| B6 | 98 | 100 | 91 | 93 | 84 |

Biological target: T1, human α5β1 integrin
Assay: cell-based or functional assay
Remark: another data set of the same source

| Binder | IC50 ng/mL (adhesion of K562 cells to GST-Fibronectin type III domains 9-10) [ng/mL] |
| --- | --- |
| B7 | 16.7 |
| B3 | 60.2 |
| B4 | 43.2 |
| B6 | 49.8 |

Each binder was assayed against T2, α4β1 integrin (UniProt P13612 34-1032; P05556 21-798) (assay: cell-based or functional assay).
T2 sequence (P13612 34-1032, chain 1 of 2): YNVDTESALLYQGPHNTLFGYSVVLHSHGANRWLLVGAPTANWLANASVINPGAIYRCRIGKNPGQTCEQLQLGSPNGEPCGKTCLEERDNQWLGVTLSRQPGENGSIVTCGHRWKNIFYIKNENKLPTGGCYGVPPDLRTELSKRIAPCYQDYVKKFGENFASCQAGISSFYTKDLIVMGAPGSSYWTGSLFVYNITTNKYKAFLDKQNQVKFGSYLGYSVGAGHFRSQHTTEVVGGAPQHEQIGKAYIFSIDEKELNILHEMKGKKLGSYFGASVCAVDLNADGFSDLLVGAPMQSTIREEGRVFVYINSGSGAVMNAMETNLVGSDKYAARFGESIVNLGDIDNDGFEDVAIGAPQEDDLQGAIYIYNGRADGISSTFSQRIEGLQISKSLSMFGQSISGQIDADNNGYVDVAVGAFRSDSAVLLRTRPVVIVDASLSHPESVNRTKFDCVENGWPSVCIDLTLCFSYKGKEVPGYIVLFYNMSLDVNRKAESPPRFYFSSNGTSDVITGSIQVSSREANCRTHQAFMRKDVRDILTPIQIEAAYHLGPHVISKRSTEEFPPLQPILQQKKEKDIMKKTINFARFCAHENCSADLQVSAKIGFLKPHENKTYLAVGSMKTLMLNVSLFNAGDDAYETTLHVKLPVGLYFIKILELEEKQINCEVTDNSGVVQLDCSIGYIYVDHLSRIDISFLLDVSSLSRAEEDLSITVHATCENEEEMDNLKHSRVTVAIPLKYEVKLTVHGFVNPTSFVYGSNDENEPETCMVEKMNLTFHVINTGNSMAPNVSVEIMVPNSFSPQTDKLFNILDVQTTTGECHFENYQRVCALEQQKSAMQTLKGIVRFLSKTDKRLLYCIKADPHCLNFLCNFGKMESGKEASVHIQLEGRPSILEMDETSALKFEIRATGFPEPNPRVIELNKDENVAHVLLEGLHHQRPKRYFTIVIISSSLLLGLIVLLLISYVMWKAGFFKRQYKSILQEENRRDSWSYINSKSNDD
T2 sequence (P05556 21-798, chain 2 of 2): as the sequence (P05556 21-798, chain 2 of 2) above

| Binder | % Inhibition of adhesion, CS1 n = 1 (J6.77 Jurkat cells on GST-CS-1) [%] | % Inhibition of adhesion, CS1 n = 2 (J6.77 Jurkat cells on GST-CS-1) [%] |
| --- | --- | --- |
| B1 | 29 | 22 |
| B5 | 28 | -5 |
| B6 | 33 | 12 |

The binders below were run against T3, Macaque α5β1 (Macaque) (assay: FACS on macaque T-cells; Goat anti Human IgG Fc Cy5 alone 3).
T3 construct: whole, on cells; On macaque T-cells (from frozen PBMCs); also called monkey α5β1; monkey integrin
Procedure: To determine whether the antibodies cross reacted to monkey integrin, binding to purified Macaque T-cells was assessed. Macaque PBMCs were previously purified from whole blood, and stored frozen. Macaque PBMCs were suspended in adhesion buffer with HBSS 1% BSA and 1 mM Mn2+ (“FACS buffer”), at a concentration of 4.8×10⁵ live cells per ml. 12.5 uL of the primary antibody was added to 37.5 ul of cells, and incubated at 4° C. for 1 hour. Positive and negative controls were included as indicated. 100 uL of FACs buffer is added to dilute out primary antibody, the cells washed and resuspended in the appropriate secondary at 2 ug/mL (50 uL) with 10 ug/mL 7AAD, and stained on ice for 7 minutes. 100 uL of FACs buffer was added and cells were washed twice in FACS buffer, finally the supernatant removed and the cells were resuspended in 100 uL of buffer.
Samples were read on HTS FACS machine and analyzed using Cell Quest Pro software. The data shown in Table 7 confirm that the antibodies cross react with monkey α5β1.

| Binder | Geo Mean on Macaque T-cells IgG detection |
| --- | --- |
| B1 | 9 |
| B2 | 13 |
| B5 | 11 |
| B6 | 10 |

Biological target: T2, α4β1 integrin
Assay: cell-based or functional assay
Remark: another data set of the same source

| Binder | Average % inhibition at 5 ug/ml (J6 cell adhesion to GST-CS-1) [%] |
| --- | --- |
| B2 | -2 |
| B5 | -11 |
| B6 | -7 |

What follows are binders tested against T4, β1 chain (integrin β1) (human, UniProt P05556 21-798) (assay: FACS on HT29 cells (α5 null, β1 present); cells alone 2.07, human secondary 2.8).
T4 construct: whole, on cells; also called b1; beta1
Procedure: (§1) To confirm the antibodies bind to the α5 chain or to the α5β1 heterodimer, binding to Human colon adenocarcinoma grade II cells (HT29 cells) was assessed by FACS. […] HT-29 cells were suspended in HBSS with 1% BSA and 1 mM final MnCL₂ at a concentration of 6×10⁵ cells/ml. 12.5 uL of the primary antibody was added to 37.5 ul of cells and the plate incubated on ice for 60 minutes. A range of negative controls were included as described previously (indicated as below). In addition as a positive control antibodies to αvβ6 (Mab2077, Chemicon), α5β1 (Mab1909, Chemicon) and αv (L230, Chemicon) were included. 100 uL of HBSS buffer was added to dilute primary antibody, the cells pelleted by centrifuging at 1500 rpm for 3 minutes and resuspended in 50 ul Goat anti-human IgG Fc Cy5 or Goat anti Mouse IgG Fc Cy5 secondary at 2 ug/mL. They were then incubated on ice for a further 7 minutes, and 100 uL of HBSS buffer was added to dilute secondary antibody. Finally cells were pelleted by centrifuging at 1500 rpm for 3 minutes, HBSS Buffer/secondary supernatant removed, washed twice in 100 ul of FACS buffer was added and the cells were resuspended and then read on a FACS Calibur HTS. Samples were analyzed using Cell Quest Pro software. The data is represented in Table 6 and confirm that the antibodies are selective for α5β1.

T4 sequence (P05556 21-798): as the sequence (P05556 21-798, chain 2 of 2) above

| Binder | Binding Geomean |
| --- | --- |
| B1 | 2.75 |
| B2 | 3.61 |
| B3 | 3.06 |
| B4 | 2.96 |
| B5 | 3.03 |
| B6 | 3.17 |

These binders were tested against T1, human α5β1 integrin (assay: FACS titration on K562 cells expressing α5β1, 1 mM MgCl2 and 1 mM CaCl2, 4 °C, nonlinear 4-parameter fit; 95% CI ±61.4 pM).
Procedure: To assess the affinity of the antibodies for α5β1, a FACS based KD analysis was employed. […] K562 cells expressing α5β1 were resuspended in filtered HBS buffer containing 1 mM MgCl₂ and 1 mM CaCl₂ at a concentration of approximately 2.5-6 million cells/mL. The cells were kept on ice. Serially diluted (2×) mAbs across 11 wells in a 96-well plate. All mAbs were diluted in HBS described above. Additional HBS and cells were added to each well so that the final volume was 300 μL/well and each well contained approximately 140,000-150,000 cells. The final molecular concentration range for each mAb was 2H12: 7.5 nM-[…]. Cells were incubated on a plate shaker for 5 hours at 4° C. and then were spun/washed 3× at 4° C. with HBS. […] The Mean Fluorescence (F) of 7000 “events” was determined using FACS Canto II HTS flow cytometry instrumentation. To calculate affinity, data was fitted nonlinearly to a plot of the Mean Fluorescence as a function of molecular mAb concentration with Scientist 3.0 software using the equation:
In this equation, F=mean fluorescence, LT=total molecular mAb concentration, P′=proportionality constant that relates arbitrary fluorescence units to bound mAb, M=cellular concentration in molarity, n=number of receptors per cell, B=background signal, and KD=equilibrium dissociation constant. […]

| Binder | Kd [nM] |
| --- | --- |
| B4 | 0.162 |

Biological target: T1, human α5β1 integrin
Assay: cell-based or functional assay
Remark: another data set of the same source

| Binder | IC50 (read off the curve), adhesion of K562 cells to GST-fibronectin repeats 8-10 [µg/mL] |
| --- | --- |
| B8 | ~0.2 |
| B4 | ~0.2 |
| B9 | ~0.2 |

The binders below were run against T4, β1 chain (integrin β1) (assay: FACS on HT29 cells (no α5 chain, β1 chain present)).
Procedure: as §1

| Binder | binding result |
| --- | --- |
| B1 | no binding |
| B2 | no binding |
| B3 | no binding |
| B5 | no binding |
| B6 | no binding |
